target: A9UPE9 PDZ (A9UPE9_MONBE PDZ domain, residues 7-98) (Monosiga brevicollis); experiment: fluorescence polarisation

| Substance | Ki [µM] |
| --- | --- |
| A9V7Z4 peptide (EDETAL) | 580 |
| A9V6G5_MONBE peptide (HRESTV) | 97 |
| DLL1/DLL4 peptide (VIATEV) | 240 |
| B1AR peptide (ASESKV) | 95 |
| BPIX peptide (WDETNL) | 330 |
| TYRP1 peptide (PNQSVV) | 97 |
| A9UXE1 peptide (QDETAL) | 460 |
| A9UP44 peptide (QSESRL) | 64 |
| A9UWP5_MONVE peptide (GSESSV) | 490 |

Source: PMC8512817
